For data set [1], the target named is T1, UGT76G1 (Stevia rebaudiana, UniProt Q6VAB4, H25A).
T1 construct: synthetic gene in pET21a (NdeI/XhoI), C-terminal hexa-histidine tag, E. coli BL21 (DE3), monomer
Description: X-ray crystal structure. It counts as binding. The conditions noted are these: sodium citrate pH 5.4, PEG 4000; 1 mM UDP.

Data set [2] has as its target T2, UGT76G1 (Stevia rebaudiana, UniProt Q6VAB4).
T2 construct: synthetic gene in pET21a (NdeI/XhoI), C-terminal hexa-histidine tag, E. coli BL21 (DE3), monomer
T2 sequence (Q6VAB4 1-458): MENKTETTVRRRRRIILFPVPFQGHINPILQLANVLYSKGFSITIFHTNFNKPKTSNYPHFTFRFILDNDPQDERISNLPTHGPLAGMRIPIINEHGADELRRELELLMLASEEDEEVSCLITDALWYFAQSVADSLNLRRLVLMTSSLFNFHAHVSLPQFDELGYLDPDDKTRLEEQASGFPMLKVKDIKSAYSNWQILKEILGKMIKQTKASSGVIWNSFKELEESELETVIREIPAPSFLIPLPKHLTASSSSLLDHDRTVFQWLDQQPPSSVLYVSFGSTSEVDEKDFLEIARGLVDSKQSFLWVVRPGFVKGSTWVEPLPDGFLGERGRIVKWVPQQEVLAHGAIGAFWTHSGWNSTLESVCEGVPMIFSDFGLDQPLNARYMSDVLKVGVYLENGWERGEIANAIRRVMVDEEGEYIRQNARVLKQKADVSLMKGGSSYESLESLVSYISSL
The data set can be described thus: X-ray crystal structure. The class given is binding.

Substrate in data set [3]: C=C1C[C@@]23CC[C@H]4[C@@](C)(CCC[C@@]4(C)C(=O)O[C@@H]4O[C@H](CO)[C@@H](O)[C@H](O)[C@H]4O)[C@@H]2CC[C@]1(O[C@@H]1O[C@H](CO)[C@@H](O)[C@H](O)[C@H]1O[C@@H]1O[C@H](CO)[C@@H](O)[C@H](O)[C@H]1O)C3
Description: purified protein. The note with it: UDPG 100 μM; transfer at R1 (initial rate, <10% consumption).

Substrate in data set [4]: C=C1C[C@@]23CC[C@H]4[C@@](C)(CCC[C@@]4(C)C(=O)O[C@@H]4O[C@H](CO)[C@@H](O)[C@H](O)[C@H]4O)[C@@H]2CC[C@]1(O[C@@H]1O[C@H](CO)[C@@H](O)[C@H](O[C@@H]2O[C@H](CO)[C@@H](O)[C@H](O)[C@H]2O)[C@H]1O[C@@H]1O[C@H](CO)[C@@H](O)[C@H](O)[C@H]1O)C3
Description: purified protein. The conditions noted are these: UDPG 100 μM; transfer at R2.

Substrate in data set [5]: C=C1C[C@@]23CC[C@H]4[C@@](C)(CCC[C@@]4(C)C(=O)O[C@@H]4O[C@H](CO)[C@@H](O)[C@H](O)[C@H]4O[C@@H]4O[C@H](CO)[C@@H](O)[C@H](O)[C@H]4O)[C@@H]2CC[C@]1(O[C@@H]1O[C@H](CO)[C@@H](O)[C@H](O)[C@H]1O[C@@H]1O[C@H](CO)[C@@H](O)[C@H](O)[C@H]1O)C3
The data set can be described thus: UDP-Glo glycosyltransferase assay, Michaelis-Menten fit. The conditions noted are these: UDPG 100 μM; transfer at R1 (initial rate, <10% consumption). The class given is biochemical, Stevia rebaudiana. The source says: (§1) UDP-Glo glycosyltransferase assay, Michaelis-Menten fit on UGT76G1

Substrate in data set [6]: O=c1ccn([C@@H]2O[C@H](CO[P@@](=O)(O)O[P@@](=O)(O)O[C@H]3O[C@H](CO)[C@@H](O)[C@H](O)[C@H]3O)[C@@H](O)[C@H]2O)c(=O)[nH]1
The data set is described as above. It counts as biochemical, Stevia rebaudiana. The note with it: sugar donor; acceptor STB 50 μM.
Description: as §1

Substrate in data set [7]: C=C1C[C@@]23CC[C@H]4[C@@](C)(CCC[C@@]4(C)C(=O)O[C@@H]4O[C@H](CO)[C@@H](O)[C@H](O)[C@H]4O)[C@@H]2CC[C@]1(O[C@@H]1O[C@H](CO)[C@@H](O)[C@H](O)[C@H]1O)C3
Described as above. The class given is biochemical, Stevia rebaudiana. The conditions noted are these: UDPG 100 μM; transfer at R1 (initial rate, <10% consumption).
Description: as §1

Substrate in data set [8]: C=C1C[C@@]23CC[C@H]4[C@@](C)(CCC[C@@]4(C)C(=O)O)[C@@H]2CC[C@]1(O[C@@H]1O[C@H](CO)[C@@H](O)[C@H](O)[C@H]1O[C@@H]1O[C@H](CO)[C@@H](O)[C@H](O)[C@H]1O)C3
The description is as above. It counts as biochemical, Stevia rebaudiana. The conditions noted are these: UDPG 100 μM; transfer at R1.
Description: as §1

This note sets out measurements from article PMC6642264, “Hydrophobic recognition allows the glycosyltransferase UGT76G1 to catalyze its substrate in two orientations” (Nature Communications, 2019).

T1 sequence (Q6VAB4 whole entry H25A): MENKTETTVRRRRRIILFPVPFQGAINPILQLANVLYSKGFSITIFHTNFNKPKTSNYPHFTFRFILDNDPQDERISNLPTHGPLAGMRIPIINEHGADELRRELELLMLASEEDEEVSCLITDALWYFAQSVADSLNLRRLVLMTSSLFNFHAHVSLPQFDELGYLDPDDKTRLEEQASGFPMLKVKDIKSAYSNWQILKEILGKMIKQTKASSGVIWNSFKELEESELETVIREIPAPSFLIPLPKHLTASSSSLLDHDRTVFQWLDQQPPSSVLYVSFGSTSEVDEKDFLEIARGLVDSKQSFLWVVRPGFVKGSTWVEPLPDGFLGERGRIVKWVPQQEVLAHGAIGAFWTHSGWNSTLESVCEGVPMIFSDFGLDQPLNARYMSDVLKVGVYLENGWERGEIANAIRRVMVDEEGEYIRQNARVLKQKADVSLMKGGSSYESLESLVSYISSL

In the case of `O=c1ccn([C@@H]2O[C@H](COP(=O)(O)OP(=O)(O)O)[C@@H](O)[C@H]2O)c(=O)[nH]1` [UDP], the X-ray crystal structure result on UGT76G1 [1] was “both the wild type and H25A mutant of UGT76G1 with UDP”; on UGT76G1 [2] (sodium citrate pH 5.4, PEG 4000, 1 mM UDP), “both the wild type and H25A mutant of UGT76G1 with UDP”.
For the molecule `C=C1C[C@@]23CC[C@H]4[C@@](C)(CCC[C@@]4(C)C(=O)O[C@@H]4O[C@H](CO)[C@@H](O)[C@H](O)[C@H]4O)[C@@H]2CC[C@]1(O[C@@H]1O[C@H](CO)[C@@H](O)[C@H](O)[C@H]1O)C3` [Rubu], the X-ray crystal structure result at UGT76G1 [2] (ternary complex with UDP, bound at active site, second remote molecule called artifact) is “the wild type with UDP and Rubu”.

B1: UGT76G1 (Stevia rebaudiana) (protein)
chain: MENKTETTVRRRRRIILFPVPFQGHINPILQLANVLYSKGFSITIFHTNFNKPKTSNYPHFTFRFILDNDPQDERISNLPTHGPLAGMRIPIINEHGADELRRELELLMLASEEDEEVSCLITDALWYFAQSVADSLNLRRLVLMTSSLFNFHAHVSLPQFDELGYLDPDDKTRLEEQASGFPMLKVKDIKSAYSNWQILKEILGKMIKQTKASSGVIWNSFKELEESELETVIREIPAPSFLIPLPKHLTASSSSLLDHDRTVFQWLDQQPPSSVLYVSFGSTSEVDEKDFLEIARGLVDSKQSFLWVVRPGFVKGSTWVEPLPDGFLGERGRIVKWVPQQEVLAHGAIGAFWTHSGWNSTLESVCEGVPMIFSDFGLDQPLNARYMSDVLKVGVYLENGWERGEIANAIRRVMVDEEGEYIRQNARVLKQKADVSLMKGGSSYESLESLVSYISSL
notes: synthetic gene in pET21a (NdeI/XhoI), C-terminal hexa-histidine tag, E. coli BL21 (DE3), monomer
As a reminder, the Km is the substrate concentration at which the rate is half of its maximum. The kcat is the maximal rate divided by the concentration of active sites. A word on the kcat/Km: it is the turnover number divided by the Michaelis constant. Consider B1, for which the Km came out at 25.5 ± 3.4 µM in “purified protein [3]”; 243.4 ± 28.1 µM in “purified protein [4]”; 9.2 ± 0.7 µM in data set [5]; 5.6 ± 0.4 µM in data set [6]; 54.4 ± 4.0 µM in data set [7]; 4.8 ± 0.4 µM in data set [8]. Also, the kcat in the data set “purified protein [3]” stood at 0.697 s⁻¹; in the data set “purified protein [4]”, 0.002 s⁻¹; in data set [5] it was 0.355 ± 0.00833 s⁻¹; in data set [6] it was 0.0683 ± 0.00167 s⁻¹; in data set [7] it was 0.0983 ± 0.00167 s⁻¹; in data set [8], 0.08 ± 0.00167 s⁻¹. Further, the specificity constant (kcat/Km) was 27300 M⁻¹ s⁻¹ in “purified protein [3]”; 8 M⁻¹ s⁻¹ in “purified protein [4]”; 38600 M⁻¹ s⁻¹ in data set [5]; 12400 M⁻¹ s⁻¹ in data set [6]; 1800 M⁻¹ s⁻¹ in data set [7]; 16500 M⁻¹ s⁻¹ in data set [8].
